Data reported in patent publication US7906705B2.

Tests used:
[1] = substrate: O=P(O)(O)O[C@H]1O[C@H](CO)[C@@H](O)[C@H](O)[C@H]1O; assay: purified protein, by the assay type; details: other: UDP sugar synthesis direction, 2.5 mM UTP, substrate 0 to 5 mM, pH 7.5, 30° C.
[2] = substrate: O=P(O)(O)O[C@H]1O[C@H](CO)[C@H](O)[C@H](O)[C@H]1O; assay: purified protein, by the assay type; details: other: UDP sugar synthesis direction, 2.5 mM UTP, substrate 0 to 5 mM, pH 7.5, 30° C., E. coli expressed, partially purified
[3] = E. coli expressed, partially purified

Protein | Km ([1]; ND = Not detected) [µM] | Vmax ([1]; ND = Not detected) [μmol mg protein^−1min^−1] | Km [1, 3] [µM] | Vmax [1, 3] [μmol mg protein^−1min^−1] | Km [2] [µM] | Vmax [2] [μmol mg protein^−1min^−1]
melon UGPase (UDP glucose pyrophosphorylase), SEQ ID NO: 35 (Cucumis melo) (protein) MASAATLSPADTEKLSKLKASVSGLTQISENEKSGFINLVSRYLSGEAQHVEWSKIQTPTDEVVVPYDSLAPVPNDPAETKKLLDKLVVLKLNGGLGTTMGCTGPKSVIEVRNGLTFLDLIVIQIENLNSKYGCNVPLLLMNSFNTHDDTQKIIEKYKGSNVDIHTFNQSQYPRLVAEDYLPLPSKGRTDKDGWYPPGHGDVFPSLKNSGKLDALIAQGKEYVFVANSDNLGAVVDLQILNHLIQNKNEYCMEVTPKTLADVKGGTLISYEGKVQLLEIAQVPDEHVNEFKSIQKFKIFNTNNLWVNLKAIKRLVEANALKMEIIPNPKEVDGIKVLQLETAAGAAIRFFDHAIGINVPRSRFLPVKATSDLLLVQSDLYTLVDGFVLRNKARKDPSNPSIELGPEFKKVGNFLSRFKSIPSIIELDSLKVVGDVSFGAGVVLKGKVTISAKPGTKLAVPDNAVIANKEINGPEDF | 240 | 238 |  |  |  | 
melon UGGPase (UDP-Gal/Glc pyrophosphorylase), SEQ ID NO: 33 (Cucumis melo) (protein) MASSLDSAALTLSNLSINGDFASSLPNLQKNLHLLSPQQVELAKILLELGQSHLFEHWAEPGVDDNEKKAFFDQVARLNSSYPGGLASYIKTARGLLADSKEGKNPFDGFTPSVPTGEVLTFGDDSFVSFEDRGVREARKAAFVLVAGGLGERLGYNGIKVALPAETTTGTCFLQSYIEYVLALREASNRLAGESETEIPFVIMTSDDTHTRTVELLESNSYFGMKPSQVKLLKQEKVACLDDNEARLAVDPHNKYRIQTKPHGHGDVHALLYSSGLLKNWHNAGLRWVLFFQDTNGLLFKAIPASLGVSATREYHVNSLAVPRKAKEAIGGITRLTHTDGRSMVINVEYNQLDPLLRATGFPDGDVNNETGYSPFPGNINQLILELGSYIEELSKTQGAIKEFVNPKYKDATKTSFKSSTRLECMMQDYPKTLPPSARVGFTVMDTWVAYAPVKNNPEDAAKVPKGNPYHSATSGEMAIYRANSLVLRKAGVKVADPVEQVFNGQEVEVWPRITWKPKWGLTFSEIKSKINGNCSISPRSTLVIKGKNVYLKDLSLDGTLIVNADEDAEVKVEGSVHNKGWTLEPVDYKDTSVPEEIRIRGFRINKIEQEERN |  |  | 270 | 222 | 430 | 714
